US20250320292A1

Molecular target: COL4A3 (immobilised as Fc-rat COL4A3 or COL4A3-His)
Experiment: BLI (Octet RED96); COL4A3 immobilised (Fc-rat COL4A3 on anti-human Fc or COL4A3-His on HIS1K, not said which), test article titrated from 50 nM

Kd: 23 µM
B1: CDAB14 (scFv)
chain: DCGPPPDIPNARPILGRHSKFAEQSKVAYSCNNGFKQVPDKSNIVVCLENGQWSSHETFCEKSCVAPERLSFASLKKEYLNMNFFPVGTIVEYECRPGFRKQPPLPGKATCLEDLVWSPVAQFCKKKSCPNPKDLDNGHINIPTGILFGSEINFSCNPGYRLVGVSSTFCSVTGNTVDWDDEFPVCTEIHCPEPPKINNGIMRGESDSYTYSQVVTYSCDKGFILVGNASIYCTVSKSDVGQWSSPPPRCIEKSKVPTKKPTINVPSTGTPSTPQKPTTESVPNPGDQPTPQKPSTVKVSATQHVPVTKTTVRHPIRTSTDKGEPNTGGGGGSGGGGSGGGGSGGGGSQVQLLESGPGLVKPSGTLSLTCTVSGGSISSTNWWTWVRQSPGTGLEWIGHIYHSGSTDYNPSLKSRVTISIDKSKNQFSLKMTSVTAADTAVYYCACAAQYHWKGLDPWGHGTLVTVSSGGGGGSGGGGSGGGGSDIVMTQTPLSLSVTPGQPASISCMSSQSLLHSDGKTYLYWYLQKPGQPPQLLIYEVSNRFSGVPDRFSGSGSGTDFTLKISRVEAEDVGIYYCMQSIQLPITFGQGTRLEIKHHHHHH
